Target: ΔAPE1 E96Q/D210N (catalytically dead, crystallization construct) (Homo sapiens (human), UniProt P27695 44-318, C138A;E96Q;D210N)
Test: crystal structure

Sequence of ΔAPE1 E96Q/D210N (catalytically dead, crystallization construct) (P27695 44-318 E96Q/C138A/D210N): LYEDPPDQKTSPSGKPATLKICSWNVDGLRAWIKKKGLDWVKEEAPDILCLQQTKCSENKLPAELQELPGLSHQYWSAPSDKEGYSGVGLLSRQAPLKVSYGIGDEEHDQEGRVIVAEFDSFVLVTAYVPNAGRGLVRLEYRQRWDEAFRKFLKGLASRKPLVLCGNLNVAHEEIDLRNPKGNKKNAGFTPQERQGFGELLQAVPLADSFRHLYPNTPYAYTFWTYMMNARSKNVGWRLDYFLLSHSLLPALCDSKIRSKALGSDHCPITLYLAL

B1: 21-mer nicked 3'-8oxoG opposite C (crystal) (dsDNA)
DNA 1: GGATCCGTCGACCGCATCAGC
DNA 2: GCTGATGCGG
DNA 3: TCGACGGATCC
modifications: 8-oxoG at 3' end of upstream strand (strand 2, written G); 5'-phosphate on downstream strand (strand 3)
**Q.** Does B1 bind?
**A.** binds

— publication doi:10.1101/2021.11.28.470279
